# According to PMC3869717, “The PCNA Interaction Protein Box Sequence in Rad54 Is an Integral Part of Its ATPase Domain and Is Required for Efficient DNA Repair and Recombination”:
# Where a chain is given by its changes, count along the chain named.
# B1: dsDNA 49-mer (dsDNA)
# DNA 1: AGCTACCATGCCTGCACGAATTAAGCAATTCGTAATCATGGTCATAGCT
# DNA 2: AGCTATGACCATGATTACGAATTGCTTAATTCGTGCAGGCATGGTAGCT
# What was measured:
# Rad54-AA = biological target: T1, Rad54-AA (Saccharomyces cerevisiae, UniProt P32863 1-898, Y494A;F495A); assay: EMSA (native PAGE); no ATP; equal to wild type; Buffer D: 40 mM Tris-HCl pH 7.8, 50 mM KCl, 1 mM DTT, 100 µg/ml BSA, 30 °C, 10 min; plasmid 30 µM nucleotides with 31.25-1000 nM protein; 49-mer 3 nM with 12.5-200 nM protein; details: protein: recombinant; blunt
# T1 sequence: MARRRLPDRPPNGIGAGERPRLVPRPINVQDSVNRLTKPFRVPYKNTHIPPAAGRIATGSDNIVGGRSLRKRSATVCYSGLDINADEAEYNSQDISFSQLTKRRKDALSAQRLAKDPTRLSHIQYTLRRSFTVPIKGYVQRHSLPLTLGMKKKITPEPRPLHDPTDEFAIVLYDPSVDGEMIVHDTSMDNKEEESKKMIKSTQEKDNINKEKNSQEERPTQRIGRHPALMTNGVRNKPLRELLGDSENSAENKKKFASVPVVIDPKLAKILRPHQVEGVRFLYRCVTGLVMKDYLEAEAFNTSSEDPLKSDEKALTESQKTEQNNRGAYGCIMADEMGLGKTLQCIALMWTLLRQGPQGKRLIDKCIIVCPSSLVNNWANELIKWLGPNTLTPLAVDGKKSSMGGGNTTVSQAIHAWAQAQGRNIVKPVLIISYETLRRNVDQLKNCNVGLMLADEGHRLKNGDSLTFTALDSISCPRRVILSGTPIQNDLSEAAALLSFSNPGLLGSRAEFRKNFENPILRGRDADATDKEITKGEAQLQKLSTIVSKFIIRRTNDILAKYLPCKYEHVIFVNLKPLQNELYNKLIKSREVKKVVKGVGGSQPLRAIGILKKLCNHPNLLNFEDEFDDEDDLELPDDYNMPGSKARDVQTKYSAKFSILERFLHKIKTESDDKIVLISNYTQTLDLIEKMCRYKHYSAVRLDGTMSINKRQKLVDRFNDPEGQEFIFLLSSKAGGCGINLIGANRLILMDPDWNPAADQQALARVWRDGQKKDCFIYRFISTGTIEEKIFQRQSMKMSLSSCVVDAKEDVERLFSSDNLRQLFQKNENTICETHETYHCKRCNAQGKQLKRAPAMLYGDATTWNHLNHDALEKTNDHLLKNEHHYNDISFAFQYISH
# Rad54 = biological target: T2, Rad54 (Saccharomyces cerevisiae, UniProt P32863 1-898); assay: EMSA (native PAGE); no ATP; Buffer D: 40 mM Tris-HCl pH 7.8, 50 mM KCl, 1 mM DTT, 100 µg/ml BSA, 30 °C, 10 min; plasmid 30 µM nucleotides with 31.25-1000 nM protein; 49-mer 3 nM with 12.5-200 nM protein; details: protein: recombinant; blunt
# T2 sequence: T1 sequence with A494Y, A495F
binder,measurement,setting,value
B1,binding result,Rad54-AA,binds
same,binding result,Rad54,binds
